Assay results: patent US20110045003A1 (SYNOVEX, published 2011)

T1: BSA coupled 37-mer Cad-11 peptide encompassing the Cad-11 immunogen (UniProt P55287 54-90, limits assumed, linked to BSA)
T1 construct: domain: 37-mer peptide encompassing the Cad-11 immunogen; also called Cad-11 antigen; Cad-11 peptide immunogen
T1 peptide (looked up): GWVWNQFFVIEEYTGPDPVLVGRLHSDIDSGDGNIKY

T2: Cad-18 EC1 domain peptide (region overlapping G1-G33 of Cad-11 EC1) (UniProt Q13634 54-86, conjugated to biotin)
T2 construct: domain: first 33 amino acids of the EC1 domain
T2 peptide (looked up): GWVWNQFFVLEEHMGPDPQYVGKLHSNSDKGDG

T3: Cad-20 EC1 domain peptide (region overlapping G1-G33 of Cad-11 EC1) (UniProt Q9HBT6 60-92, conjugated to biotin)
T3 construct: domain: first 33 amino acids of the EC1 domain
T3 peptide (looked up): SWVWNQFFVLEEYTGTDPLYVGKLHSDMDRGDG

T4: Cad-24 EC1 domain peptide (region overlapping G1-G33 of Cad-11 EC1) (UniProt Q86UP0 45-77, conjugated to biotin)
T4 construct: domain: first 33 amino acids of the EC1 domain
T4 peptide (looked up): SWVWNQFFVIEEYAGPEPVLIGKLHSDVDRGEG


Legend:
[1] = biological target: T1, BSA coupled 37-mer Cad-11 peptide …; assay: ELISA on BSA coupled 37-mer peptides, coat 50 ng/ml
[2] = biological target: T1, BSA coupled 37-mer Cad-11 peptide …; assay: ELISA on BSA coupled 37-mer cadherin peptides, coat 500 ng/ml
Protocol: (§1) A dilution series from 5 μg/ml to 8 ng/ml in a volume of 100 μl/well of each the humanized anti-Cad-11 antibodies were incubated in the peptide coated wells and incubated at 22° C. for 1 hr. Antibody solution was removed from the wells and the plate washed twice with 200 μl/well of 0.05% Tween-PBS at 22° C. and blotted dry. The goat-anti mouse IgG (Pierce # 31432) was added to each well to plate at a 1:1000 dilution, 100 μl/well and incubate at 22° C. for 30 min. The secondary antibody solution was removed and the plate washed twice with 200 μl/well of 0.05% Tween-PBS at 22° C. and blotted dry. The reaction was developed by adding 100 μl/well tetramethylbenzidine (TMB) reagent IgG (Pierce # 34022, 1 step Turbo TMB-ELISA) to plate and developed at 22° C. for 5 min.
The greatest cross reactivity was seen against Cad-8. […] This assay was repeated with the Cad-11, Cad-8 and Cad-18 antigens with a lower antigen coat concentration of 50 ng/ml and a wider dilution series of the SDP051 antibody (FIG. 41B). […] An EC50 for Cad-18 could not be established due to the low level of binding observed.

[3] = biological target: T1, BSA coupled 37-mer Cad-11 peptide …; assay: ELISA on BSA coupled 37-mer peptide, coat 50 ng/ml; Cad-11 antigen, coat 50 ng/ml
[4] = biological target: T1, BSA coupled 37-mer Cad-11 peptide …; assay: ELISA, BSA-coupled 37-mer cadherin peptide coated at 500 ng/ml, antibody titrated, A450
Protocol: as §1, with “Reactibind plates (ThermoScientific) were coated with 500 ng/ml of the BSA coupled cadherin 37-mer peptide (NE peptide) corresponding to Cadherins-7, -8, -9, -11, -18, -20, and -24 in 0.05% Tween (EMD, product code 9480) in PBS (pH 7.2) (Gibco(Invitrogen), #20012) at 100 μl volume/well for overnight at 4° C. The peptide containing solution was removed from the well and the plate blocked with a 2% bovine serum albumin (BSA) in PBS, 200 μl volume/well, for 2 h at 22° C. The plate was then washed twice with 200 μl/well of PBS-Tween 0.05% at 22° C. and blotted dry. A dilution” for “A dilution”

[5] = biological target: T2, Cad-18 EC1 domain peptide (region …); assay: ELISA on biotinylated EC1 domain peptide captured on a Neutravidin plate, goat anti-mouse IgG, TMB, A450
Protocol: (§2) The specificity of H1M1 and H14 anti-Cad-11 antibodies was tested further using an ELISA against the first 33 amino acids of the EC1 domains of Cad-11, Cad-7, Cad-8, Cad-20, Cad-24, Cad-9, Cad-18, and MN-Cad. Peptides corresponding to the region of Cad-7, Cad-8, Cad-20, Cad-24, Cad-9, Cad-18, MN-Cad that overlapped with the G1-G33 region of the Cad-11 EC1 domain were synthesized and conjugated to biotin. 100 μl of a 30 ng/ml solution of each of these peptides in PBS-Tween (0.05%) were incubated in each well of a 96-well Netravidin plate for 2-3 hrs at 4° C. and then washed twice with PBS-Tween (0.05%). Various concentrations of the anti-Cad-11 antibody were incubated in each well for 1 hr at 22° C. and then washed twice with PBS-Tween (0.05%). 100 μl of a 1/1000 dilution of a goat anti-mouse IgG secondary antibody were added to each well, incubated for 30 min at 22° C., and then washed twice with PBS-Tween (0.05%). 100 μl/well of room temperature TMB (3,3′,5,5′-tetramethylbenzidine) reagent was added to each well and color was allowed to develop for 5 min at 22° C.

[6] = biological target: T3, Cad-20 EC1 domain peptide (region …); assay: as above
Protocol: as §2

[7] = biological target: T4, Cad-24 EC1 domain peptide (region …); assay: as above
Protocol: as §2

binding differential (Cad-11 against Cad-8) [1] [fold] | fold greater binding to the Cad-11 antigen than to the related antigens from the other cadherins [2] [fold] | EC50 [3] [µg/mL] | EC50 (read off the curve) [4] [µg/mL] | binding result [5] | binding result [6] | binding result [7] | Binder
> 200 | > 100 | 0.0068 | ~0.04 |  |  |  | humanized anti-Cad-11 EC1 antibody SDP051 (Vκ1/VH5) (antibody, IgG4, V domains shown, humanized IgG4 (S241P), kappa) VH: EVQLVQSGAEVKKPGASVKVSCKASGYSFTGYFMNWVRQAPGQGLEWIGRINPYTGDTFYNQKFKGRVTITVDKSTSTAYMELSSLRSEDTAVYYCGRLGSRYWYFDVWGQGTTVTVSS VL: DVLMTQTPLSSPVTLGQPASISCRSSQSIIHSNGNTYLEWYLQKPGQSPQLLIYKVSNRFSGVPDRFTGSGSGTDFTLKISRVEAEDVGVYYCFQGSHVPWTFGQGTKLEIK
 |  |  |  | no binding | no binding | no binding | murine H1M1 monoclonal anti-Cad-11 EC1 antibody (hybridoma H1M1, ATCC PTA-9699) (antibody, V domains shown, Biotinylated when used as the labelled competitor in Example 14; the letters are unchanged., murine antibody raised against Peptide 4; also called SYN0012; SYN0012/H1M1) VH: EVQLQQSGPELVKPGASVKISCKASGYSFTGYFMNWVKQSHGKSLEWIGRINPYTGDTFYNQKFKGKATLTVDKSSSTAHMELLSLSSEDSAVYYCGRLGSRYWYFDVWGAGTTVTVSS VL: DVLMTQTPLSLPVSLGDQASISCRSSQSIIHSNGNTYLEWYLQKPGQSPKLLIYKVSNRFSGVPDRFTGSGSGTDFTLKISRVEAEDLGVYYCFQGSHVPWTFGGGTKLEIK
